In patent publication US8840891 (RSR, dated 2014):
Like-named read-outs stand apart in the source and are kept apart here.

How the values were obtained:
[1] = target: wild type human TSHR (thyrotropin receptor) expressed on CHO cells (human) (UniProt P16473); assay: cell-based or functional assay
[2] = target: TSHR with Lys209 mutated to Alanine expressed on CHO cells (human) (UniProt P16473); assay: cell-based or functional assay
[3] = target: TSHR with Tyr185 mutated to Alanine expressed on CHO cells (human) (UniProt P16473); assay: cell-based or functional assay
[4] = target: wild type human TSHR (thyrotropin receptor) expressed on CHO cells (human) (UniProt P16473); assay: cell-based or functional assay; remark: listed apart in the source
[5] = target: TSHR with Thr257 mutated to Alanine expressed on CHO cells (human) (UniProt P16473); assay: cell-based or functional assay
[6] = target: wild type human TSHR (thyrotropin receptor) expressed on CHO cells (human) (UniProt P16473); assay: cell-based or functional assay; remark: listed apart in the source
[7] = target: TSHR with Phe130 mutated to Alanine expressed on CHO cells (human) (UniProt P16473); assay: cell-based or functional assay
[8] = target: TSHR coated onto tubes (TSHR coated tubes) (human) (UniProt P16473); assay: TSHR coated tubes, in the presence of HBD pool (Table 5)

B1: 5C9 IgG (human monoclonal autoantibody to the TSHR) (antibody, from another filing, V domains shown)
VH: EVQLVESGGGLIQPGGSLRLSCAASGFTVSSNYMSWVRQAPGKGLEWVSVTYSGGSTSYADSVKGRFTISRDNSKNTLYLQMNSLRAEDTAVYYCARGGRYCSSISCYARSGCDYWGQGTLVTVSS
VL: AIQMTQSPSSLSASVGDRVTITCRASQSISNYLNWYQQKPGKAPKLLIYAASSLQSGVPSRFSGSGSGTDFTLTISSLQPEDFATYYCQQSYSSPSTTFGQGTKLEIK
[1]
  Cyclic AMP produced; 5C9 0.01 µg/mL + TSH (fmol/cell well): 15400
  Cyclic AMP produced; 5C9 0.1 µg/mL + TSH (fmol/cell well): 4700
  Cyclic AMP produced; 5C9 1.0 µg/mL + TSH (fmol/cell well): 1180
  Cyclic AMP produced; 5C9 10 µg/mL + TSH (fmol/cell well): 984
  Cyclic AMP produced; 5C9 100 µg/mL + TSH (fmol/cell well): 602
  Cyclic AMP produced; 5C9 100 µg/mL only (fmol/cell well): 272
[2]
  Cyclic AMP produced; 5C9 0.01 µg/mL + TSH (fmol/cell well): 5960
  Cyclic AMP produced; 5C9 0.1 µg/mL + TSH (fmol/cell well): 278
  Cyclic AMP produced; 5C9 1.0 µg/mL + TSH (fmol/cell well): 360
  Cyclic AMP produced; 5C9 10 µg/mL + TSH (fmol/cell well): 482
  Cyclic AMP produced; 5C9 100 µg/mL + TSH (fmol/cell well): 354
  Cyclic AMP produced; 5C9 100 µg/mL only (fmol/cell well): 280
  Mutated/wild type (%); 5C9 0.01 µg/mL + TSH: 39%
  Mutated/wild type (%); 5C9 0.1 µg/mL + TSH: 6%
  Mutated/wild type (%); 5C9 1.0 µg/mL + TSH: 30%
  Mutated/wild type (%); 5C9 10 µg/mL + TSH: 49%
  Mutated/wild type (%); 5C9 100 µg/mL + TSH: 59%
  Mutated/wild type (%); 5C9 100 µg/mL only: 103%
[3]
  Cyclic AMP produced; 5C9 0.01 µg/mL + TSH (fmol/cell well): 9370
  Cyclic AMP produced; 5C9 0.1 µg/mL + TSH (fmol/cell well): 4540
  Cyclic AMP produced; 5C9 1.0 µg/mL + TSH (fmol/cell well): 1200
  Cyclic AMP produced; 5C9 10 µg/mL + TSH (fmol/cell well): 301
  Cyclic AMP produced; 5C9 100 µg/mL only (fmol/cell well): 163
  Mutated/wild type (%); 5C9 0.01 µg/mL + TSH: 54%
  Mutated/wild type (%); 5C9 0.1 µg/mL + TSH: 73%
  Mutated/wild type (%); 5C9 1.0 µg/mL + TSH: 72%
  Mutated/wild type (%); 5C9 10 µg/mL + TSH: 63%
  Mutated/wild type (%); 5C9 100 µg/mL only: 133%
[4]
  Cyclic AMP produced; 5C9 0.01 µg/mL + TSH (fmol/cell well): 17300
  Cyclic AMP produced; 5C9 0.1 µg/mL + TSH (fmol/cell well): 6220
  Cyclic AMP produced; 5C9 1.0 µg/mL + TSH (fmol/cell well): 1660
  Cyclic AMP produced; 5C9 10 µg/mL + TSH (fmol/cell well): 481
  Cyclic AMP produced; 5C9 100 µg/mL + TSH (fmol/cell well): 275
  Cyclic AMP produced; 5C9 100 µg/mL only (fmol/cell well): 123
[5]
  Cyclic AMP produced; 5C9 0.01 µg/mL + TSH (fmol/cell well): 21100
  Cyclic AMP produced; 5C9 0.1 µg/mL + TSH (fmol/cell well): 7940
  Cyclic AMP produced; 5C9 1.0 µg/mL + TSH (fmol/cell well): 1590
  Cyclic AMP produced; 5C9 10 µg/mL + TSH (fmol/cell well): 972
  Cyclic AMP produced; 5C9 100 µg/mL + TSH (fmol/cell well): 611
  Cyclic AMP produced; 5C9 100 µg/mL only (fmol/cell well): 637
  Mutated/wild type (%); 5C9 0.01 µg/mL + TSH: 113%
  Mutated/wild type (%); 5C9 0.1 µg/mL + TSH: 129%
  Mutated/wild type (%); 5C9 1.0 µg/mL + TSH: 114%
  Mutated/wild type (%); 5C9 10 µg/mL + TSH: 152%
  Mutated/wild type (%); 5C9 100 µg/mL + TSH: 103%
  Mutated/wild type (%); 5C9 100 µg/mL only: 111%
[6]
  Cyclic AMP produced; 5C9 0.01 µg/mL + TSH (fmol/cell well): 15300
  Cyclic AMP produced; 5C9 0.1 µg/mL + TSH (fmol/cell well): 2710
  Cyclic AMP produced; 5C9 1.0 µg/mL + TSH (fmol/cell well): 398
  Cyclic AMP produced; 5C9 10 µg/mL + TSH (fmol/cell well): 151
  Cyclic AMP produced; 5C9 100 µg/mL + TSH (fmol/cell well): 240
  Cyclic AMP produced; 5C9 100 µg/mL only (fmol/cell well): 334
[7]
  Cyclic AMP produced; 5C9 0.01 µg/mL + TSH (fmol/cell well): 17400
  Cyclic AMP produced; 5C9 0.1 µg/mL + TSH (fmol/cell well): 9020
  Cyclic AMP produced; 5C9 1.0 µg/mL + TSH (fmol/cell well): 2240
  Cyclic AMP produced; 5C9 10 µg/mL + TSH (fmol/cell well): 1140
  Cyclic AMP produced; 5C9 100 µg/mL + TSH (fmol/cell well): 603
  Cyclic AMP produced; 5C9 100 µg/mL only (fmol/cell well): 446
  Mutated/wild type (%); 5C9 0.01 µg/mL + TSH: 114%
  Mutated/wild type (%); 5C9 0.1 µg/mL + TSH: 332%
  Mutated/wild type (%); 5C9 1.0 µg/mL + TSH: 562%
  Mutated/wild type (%); 5C9 10 µg/mL + TSH: 754%
  Mutated/wild type (%); 5C9 100 µg/mL + TSH: 251%
  Mutated/wild type (%); 5C9 100 µg/mL only: 134%
[8]
  % of labelled protein bound: 13%
